# Reference: US20140235820A1, “METHODS AND COMPOSITIONS FOR MODULATING THE Wnt PATHWAY” (Genentech, Inc., priority 2010, published 2014)
# Tests used:
# [1] = target: T1, Wnt3a binding to LRP6 E1E4 (Homo sapiens, UniProt O75581); test: Wnt3a binding to LRP6 E1E4 in presence of inhibitor; conditions: inhibitor 125 nM, Wnt 125 nM
# T1 construct: construct E1E4-amino acids A20-Q1253 of LPR6; made in house; host or cells: Tni insect cells (baculovirus, secreted)
# T1 sequence (O75581 20-1253): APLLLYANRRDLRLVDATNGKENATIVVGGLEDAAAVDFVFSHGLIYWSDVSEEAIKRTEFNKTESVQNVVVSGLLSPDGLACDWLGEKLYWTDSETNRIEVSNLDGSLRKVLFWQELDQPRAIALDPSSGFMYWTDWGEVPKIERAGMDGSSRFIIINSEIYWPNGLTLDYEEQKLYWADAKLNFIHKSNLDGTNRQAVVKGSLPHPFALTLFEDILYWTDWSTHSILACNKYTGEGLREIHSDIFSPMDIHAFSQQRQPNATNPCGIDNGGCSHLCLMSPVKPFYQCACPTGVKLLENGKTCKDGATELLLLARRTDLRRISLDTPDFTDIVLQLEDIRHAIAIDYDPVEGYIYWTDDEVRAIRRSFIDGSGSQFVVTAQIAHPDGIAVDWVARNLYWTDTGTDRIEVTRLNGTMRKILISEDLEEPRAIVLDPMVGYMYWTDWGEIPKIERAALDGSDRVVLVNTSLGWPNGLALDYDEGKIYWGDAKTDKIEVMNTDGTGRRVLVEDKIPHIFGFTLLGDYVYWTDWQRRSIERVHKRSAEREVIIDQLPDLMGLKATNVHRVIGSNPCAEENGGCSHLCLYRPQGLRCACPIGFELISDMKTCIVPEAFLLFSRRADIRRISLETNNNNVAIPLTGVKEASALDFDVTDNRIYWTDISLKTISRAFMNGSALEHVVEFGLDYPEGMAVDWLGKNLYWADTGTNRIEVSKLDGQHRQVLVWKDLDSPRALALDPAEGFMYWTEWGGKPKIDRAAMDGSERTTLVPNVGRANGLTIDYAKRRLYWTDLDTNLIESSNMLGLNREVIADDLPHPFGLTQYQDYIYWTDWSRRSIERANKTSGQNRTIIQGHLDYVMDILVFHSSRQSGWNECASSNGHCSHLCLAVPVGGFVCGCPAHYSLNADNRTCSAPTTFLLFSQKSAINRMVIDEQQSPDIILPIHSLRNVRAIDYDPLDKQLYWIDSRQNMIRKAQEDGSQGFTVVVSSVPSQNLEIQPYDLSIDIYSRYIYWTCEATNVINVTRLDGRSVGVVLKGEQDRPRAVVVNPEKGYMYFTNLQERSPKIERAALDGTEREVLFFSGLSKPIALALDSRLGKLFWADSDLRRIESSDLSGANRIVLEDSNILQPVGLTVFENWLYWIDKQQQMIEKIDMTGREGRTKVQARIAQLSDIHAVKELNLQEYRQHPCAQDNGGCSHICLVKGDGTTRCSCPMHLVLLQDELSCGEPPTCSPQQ
# Protocol: FIG. 11. Wnt binding to LRP6 E1E4 in the presence or absence of Dkk1 or sclerostin.
# (§1) Binding kinetics were measured by biolayer interferometry using an Octet Red instrument (ForteBio) as previously described (11). Streptavidin (SA) biosensors were loaded with biotinylated hLRP6 in 50 mMTris, pH 8, 300 mM NaCl, 5% (v/v) glycerol, and 0.05% (w/v) Triton X-100. The loaded biosensors were washed in the same buffer before carrying out association and dissociation measurements for the indicated times. The Kd of each interaction was determined using steady state-analysis through the Octet Red software v6.3. Each reported value represents an average of three or more experiments at different concentrations, with a fitted experimental curve for which the square of the correlation coefficient (R^2) is above 0.96.
# Wnt9b also binds to the E1E2 region but not to the E3E4 region (11). Accordingly, sclerostin inhibits Wnt9b binding to LRP6 E1E4 (FIG. 11). […] Accordingly, Dkk1 inhibits the binding of both Wnt3a and Wnt9b to LRP6 E1E4 (FIG. 11).
# [2] = target: T2, LRP6 E1E2 variants with LRP5 BMD substitutions (Homo sapiens, UniProt O75581, R141M); test: Steady-state affinity for LRP6 E1E2 variants carrying LRP5 BMD substitutions; format: binding; conditions: LRP6 Arg141Met vs wild type LRP6 E1E2
# T2 construct: construct E1E2-amino acids A20-E631 of LPR6; made in house; host or cells: insect cells (Tni, baculovirus)
# T2 sequence (O75581 20-631 R141M): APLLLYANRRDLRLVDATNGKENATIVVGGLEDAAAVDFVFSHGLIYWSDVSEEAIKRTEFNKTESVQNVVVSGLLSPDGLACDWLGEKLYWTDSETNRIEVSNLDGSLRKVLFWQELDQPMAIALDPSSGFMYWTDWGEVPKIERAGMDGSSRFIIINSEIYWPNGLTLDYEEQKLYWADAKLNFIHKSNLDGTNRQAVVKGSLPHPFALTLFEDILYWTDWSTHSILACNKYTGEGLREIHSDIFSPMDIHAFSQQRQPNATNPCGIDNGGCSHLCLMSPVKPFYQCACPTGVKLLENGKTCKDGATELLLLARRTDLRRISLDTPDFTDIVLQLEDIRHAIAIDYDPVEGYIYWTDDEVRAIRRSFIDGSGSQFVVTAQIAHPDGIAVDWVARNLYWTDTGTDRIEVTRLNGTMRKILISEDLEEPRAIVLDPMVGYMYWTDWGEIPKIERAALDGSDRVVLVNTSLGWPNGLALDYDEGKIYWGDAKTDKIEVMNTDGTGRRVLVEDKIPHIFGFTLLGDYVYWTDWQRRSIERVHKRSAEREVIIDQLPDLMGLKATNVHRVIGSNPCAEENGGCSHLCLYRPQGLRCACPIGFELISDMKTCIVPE
# Protocol: (§2) FIG. 13. Introduction of LRP5 BMD substitutions into LRP6 E1E2 lowers affinity for Wnt inhibitors. The five substitutions characterized are indicated on the y-axis. Steady-state affinity measurements were made for Wnt9b, Dkk1, and sclerostin binding to each of the LRP6 variants.
# as §1
# (§3) Cells transfected with LRP5 variants carrying BMD mutations show reduced binding to sclerostin and are less sensitive to sclerostin inhibition of Wnt10b or Wnt6 signaling (70). To further test the effects of the BMD substitutions, we introduced several of them into LRP6 E1E2, with the results shown in FIG. 13. LRP6 E1E2 Gly158Val could not be expressed in insect cells. […] Importantly, not only is the binding to sclerostin affected (70), but the binding of Dkk1 to its E1 interaction site is also impaired.
# [3] = test system: LRP6 E1E2 variants with LRP5 BMD substitutions; test: as above; format: binding, human
# Protocol: as §2, §1, §3
Substance,inhibition of Wnt3a binding to LRP6 E1E4 [1],loss in affinity for LRP6 E1E2 Arg141Met [2] [fold],effect of LRP6 BMD mutations on binding to LRP6 E1E2 (in words) [3]
"Dkk1: Dickkopf 1 protein, Wnt pathway inhibitor, expressed in insect cells (NSNAIKN)",inhibits,29,disrupt the binding
"sclerostin: Sclerostin protein, Wnt pathway inhibitor, expressed in insect cells (LPNAIGR)",unable to inhibit,31,disrupt the binding
